In data set [1] the target is T1, TF/heparanase complex (Homo sapiens, UniProt P13726+Q9Y251, DEL111-157/INS109GSGSG).
T1 construct: comprised of the 8 kDa and 50 kDa heparanase heterodimer (8+50); purchased American Diagnostica (Stanford, Conn., USA) for TF and factor VIIa; host or cells: heparanase GS3 made in house: conditioned medium of baculovirus-infected cells
Description: Inhibition of heparanase procoagulant activity in the thrombin generation assay. Type of data set: biochemical. As to conditions: for heparanase procoagulant activity (thrombin generation): inhibitor added to the thrombin generation assay with heparanase. The procedure:
FIG. 6B. Heparanase procoagulant activity is attenuated by TFPI and TFPI-2. Same as FIG. 1D, except that recombinant human TFPI and TFPI-2 were added prior to heparanase addition. The mean value±SD of three independent experiments is shown.
FIG. 6C. Heparanase procoagulant activity is abrogated by an anti-Xa derivative.
In order to verify that factor Xa produced in the presence of heparanase is active, thrombin generation, the next step in the coagulation cascade, was examined. The experiment described above (FIG. 1A) was repeated and plasma-derived human prothrombin (222 μM) was added following the addition of factor X. After 15 minutes at 37° C., chromogenic substrate for thrombin was added (1 mM). In the presence of heparanase, thrombine generation was increased (FIG. 1D).

Data set [2] concerns the target T1, TF/heparanase complex. Description: Inhibition of heparanase procoagulant activity in the factor Xa generation assay. It is filed as biochemical. As to conditions: for procoagulant effect of heparanase on Xa level: co-addition of peptide with heparanase, FIG. 23A; for procoagulant effect induced by heparanase (Xa level): peptide 25 μg/ml (15 μM), heparanase 1.5 μM, FIG. 26. The method, then: FIG. 23A. Factor Xa levels was evaluated by chromogenic substrate in an in-vitro assay including purified proteins of tissue factor (TF), factor VIIa, factor X and assay buffer.
FIG. 26. Factor Xa levels was evaluated by chromogenic substrate in an in-vitro assay including lipidated TF (0.004 μM), factor VIIa (0.04 μM) and factor X (1.4 μM). The Xa level was studied by a chromogenic substrate (1 mM).
(§1) Following preliminary experiments to quantify the appropriate protein doses, we performed a basic experiment of factor Xa generation in the following manner: the concentrations mentioned are the final concentrations. Lipidated recombinant human TF (0.004 μM, […]), recombinant human factor VIIa (0.04 μM) and plasma-derived human factor X (1.4 μM) were incubated in 50 μL assay buffer (0.06 M Tris, 0.04 M NaCl, 2 mM CaCl 2, 0.04% bovine serum albumin, pH 8.4) to a total volume of 125 μL in a 96-well sterile plate. After 15 min at 37° C., chromogenic substrate for factor Xa was added (1 mM). After 20 min, the reaction was stopped with 50 μL of glacial acetic acid and the level of factor Xa generation was determined using an enzyme-linked immunosorbent assay (ELISA) plate reader (Power Wave XS, BIO-TEK, VT, USA). In order to visualize the increased production of factor Xa by western blotting, the experiment was repeated with 7 μM factor X. After 15 min at 37° C., half of the reaction volume was subjected to blotting using monoclonal anti-human factor X/Xa heavy chain antibody.
The coagulation assay included the peptides and the following components: lipidated TF (0.004 μM), factor VIIa (0.04 μM) and factor X (1.4 μM). The Xa level was studied by a chromogenic substrate (1 mM).

The target in data set [3] is T2, TF/heparanase complex (Homo sapiens, UniProt Q9Y251).
T2 construct: endogenous in cells; host or cells: ICR mice in vivo (TF endogenous)
T2 sequence (Q9Y251 36-543): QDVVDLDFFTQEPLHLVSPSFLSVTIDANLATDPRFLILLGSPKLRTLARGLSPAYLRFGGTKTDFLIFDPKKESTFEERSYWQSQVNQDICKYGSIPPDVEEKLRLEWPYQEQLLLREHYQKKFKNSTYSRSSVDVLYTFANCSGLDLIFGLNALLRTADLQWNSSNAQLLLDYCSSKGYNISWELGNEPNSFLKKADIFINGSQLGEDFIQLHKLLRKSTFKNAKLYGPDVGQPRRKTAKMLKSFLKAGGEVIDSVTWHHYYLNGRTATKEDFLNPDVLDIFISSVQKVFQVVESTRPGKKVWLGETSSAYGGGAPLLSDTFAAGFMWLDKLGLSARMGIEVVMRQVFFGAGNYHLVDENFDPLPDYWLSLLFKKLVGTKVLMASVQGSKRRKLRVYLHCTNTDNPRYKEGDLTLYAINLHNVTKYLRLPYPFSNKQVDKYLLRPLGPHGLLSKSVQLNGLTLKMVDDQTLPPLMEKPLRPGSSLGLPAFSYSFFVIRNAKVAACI
Description: TF/heparanase inhibitory peptides in heparanase-injected ICR mice (TAT by ELISA). It is filed as in vivo. The note with it: peptide intra-peritoneal half an hour after heparanase, blood after 4 hours. The method, then:
FIG. 23B. Heparanase was injected intra-peritoneal to ICR mice. Inhibitory peptides to TF/heparanase complex (number 5, 6, 21) were injected intra-peritoneal half an hour after heparanase. Four hours later the blood was drawn and Thrombin-antithrombin (TAT) level was measured by ELISA.
Methods: ICR mice, heparanase knock-out mice and heparanase over-expression mice were studied. Sepsis was induced by intra-peritoneal injection of lipopolysaccharides (LPS). Inhibitory peptides to TF/heparanase complex (number 11, 22, 5, 6, 7, 12, and 21 [SEQ IDs: 1-7]) were injected intra-peritoneal half an hour after heparanase or LPS. After 4 hours blood was obtained via sub-mandibular plexus puncture followed by mice sacrificing. Levels of thrombin-antithrombin (TAT), D-Dimer and IL-6 were tested using ELISA. Western blot to plasma factor VII and immunostaining of fibrinogen in lung, kidney and spleen were performed.

The nature of data set [4]: Water solubility of the peptides. Type of data set: physicochemical.
The target of a further data set is T3, TF-factor VIIa complex (Homo sapiens, UniProt P13726).
T3 construct: purchased American Diagnostica (Stanford, Conn., USA)
Description: Activated factor X generation assay with purified TF, factor VIIa and factor X (chromogenic substrate). It is filed as biochemical. The note with it: overnight serum-free medium of 293 HEK cells over-expressing heparanase species, compared to mock. The procedure:
FIG. 1A. Recombinant human TF, recombinant human factor VIIa, and plasma-derived human factor X were incubated (15 min, 37° C.) in a total assay volume of 125 μL. Chromogenic substrate for the detection of factor Xa was then added (final concentration 1 mM). Recombinant active heparanase GS3 (Hepa) was added prior to the addition of the coagulation factors. The mean value±SD of three independent experiments in shown. […]
FIG. 1C. […] The mean value of two experiments is shown. Note a 2-fold increase in coagulation activity when the medium contained heparanase or its derivatives.
as §1
The factor Xa generation assay was performed as described in the Design and Methods section with increasing doses of recombinant human heparanase (GS3) added prior to the addition of the coagulation factors. […] It should be noted that factor X is composed of two polypeptide chains, a heavy chain with a molecular weight of 38 kDa and a light chain with a molecular weight of 18 kDa joined by a dipeptide Arg-Arg. The factor VIIa-TF complex activates the conversion of factor X to factor Xa by cleaving the heavy chain to a 33 kDa peptide. […] In order to exclude contamination of the heparanase preparation during the routine procedure of purification described in the Design and Methods section, the inventors tested the effect of overnight serum-free without phenol medium of 293 HEK cells over-expressing heparanase and its derivatives compared to mock. The proteins were further purified from the culture medium and analyzed. Similar quantities of proteins were obtained from the culture media.

“Also recorded” adds a separate entry of the source. Ends that are not written are not given here.

This note sets out measurements from patent US11448657B2, “Methods and kits for assessing Heparanase procoagulant activity, compositions comprising Heparanase, and methods for the treatment of coagulation-related disorders” (RAMBAM MED-TECH, priority 2011, dated 2022).

T1 sequence (P13726 33-295, stated change not applied, one chain of several): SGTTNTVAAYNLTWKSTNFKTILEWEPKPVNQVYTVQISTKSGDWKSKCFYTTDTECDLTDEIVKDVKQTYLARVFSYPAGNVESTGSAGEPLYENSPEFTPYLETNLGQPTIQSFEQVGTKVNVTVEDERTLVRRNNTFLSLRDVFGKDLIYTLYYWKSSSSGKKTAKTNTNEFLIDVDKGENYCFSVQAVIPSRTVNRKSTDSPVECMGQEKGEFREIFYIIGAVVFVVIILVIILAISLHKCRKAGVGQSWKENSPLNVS
T3 sequence (P13726 33-295): as the sequence (P13726 33-295, stated change not applied, one chain of several) above
T3 sequence (P08709 61-212 partner limits assumed): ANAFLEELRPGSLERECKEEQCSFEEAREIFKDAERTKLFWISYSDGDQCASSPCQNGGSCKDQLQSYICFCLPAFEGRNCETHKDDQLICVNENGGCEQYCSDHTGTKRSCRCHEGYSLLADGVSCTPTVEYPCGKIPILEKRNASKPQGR
T3 sequence (P08709 213-466 partner limits assumed): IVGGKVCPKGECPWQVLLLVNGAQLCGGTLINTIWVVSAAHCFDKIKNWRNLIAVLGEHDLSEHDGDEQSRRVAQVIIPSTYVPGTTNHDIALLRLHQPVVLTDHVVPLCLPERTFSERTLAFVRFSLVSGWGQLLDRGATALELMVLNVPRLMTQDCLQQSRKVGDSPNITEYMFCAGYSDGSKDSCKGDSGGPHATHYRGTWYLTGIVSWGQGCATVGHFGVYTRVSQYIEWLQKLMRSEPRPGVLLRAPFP

As to `O=C(NC[C@H]1CN(c2ccc(N3CCOCC3=O)cc2)C(=O)O1)c1ccc(Cl)s1` [Rivaroxaban, reference compound], the “heparanase procoagulant activity (thrombin generation)” value (shortened to “heparanase procoagulant activity”) is recorded as “abolished the effect of heparanase” on TF/heparanase complex [1] and “abolished the procoagulant effect of heparanase” at TF/heparanase complex [1] (listed as rivaroxaban). With “AEICLLPLDYGPCR (cysteine pairing not given here) [Peptide 6]”, in the data set with TF/heparanase complex [2], the “procoagulant effect of heparanase on Xa level” value is on record as “abolished the procoagulant effect of heparanase” and the “procoagulant effect induced by heparanase (Xa level)” value (from here on “procoagulant effect induced”) was “inhibited the procoagulant effect induced by heparanase”. Besides, the “procoagulant effect of heparanase (TAT level)” value in the data set with TF/heparanase complex [3] is “completely abolished the procoagulant effect of heparanase”. As to “Ac-AEICLLPLDYGPCR (cysteine pairing not given here) [Peptide 6-Ac]”, the “procoagulant effect induced” value on TF/heparanase complex [2] is “inhibited the procoagulant effect induced by heparanase”.

On to “Ac-Ile Cys Leu Leu Pro Leu Asp Tyr Gly Pro Cys Arg Ala Leu (Ac-ICLLPLDYGPCRAL; cysteine pairing not given here) [Peptide 5-Ac]”, for which the “procoagulant effect induced” value with TF/heparanase complex [2] is on record as “inhibited the procoagulant effect induced by heparanase”.

As for Ac-NNAEICLLPLDYGP [Peptide 7-Ac], the “water solubility compared to non-acetylated counterpart” value in data set [4] was “more water soluble than their corresponding non acetylated counterparts”.

Turning to “ICLLPLDYGPCRAL (cysteine pairing not given here) [Peptide 5]”, in the data set with TF/heparanase complex [2], the “procoagulant effect of heparanase on Xa level” value is listed as “abolished the procoagulant effect of heparanase” and the “procoagulant effect induced” value is “inhibited the procoagulant effect induced by heparanase”. In the data set with TF/heparanase complex [3], the “procoagulant effect of heparanase (TAT level)” value is recorded as “markedly decreased heparanase effect”. In the case of NANNFYTWEAC [Peptide 21], the “procoagulant effect of heparanase on Xa level” value with TF/heparanase complex [2] is given as “abolished the procoagulant effect of heparanase”. In the data set with TF/heparanase complex [3], the “procoagulant effect of heparanase (TAT level)” value is “markedly decreased heparanase effect”.

Regarding NNAEICLLPLDYGP [Peptide 7], in the data set with TF/heparanase complex [2], the “procoagulant effect of heparanase on Xa level” value was “abolished the procoagulant effect of heparanase” and the “procoagulant effect induced” value is recorded as “inhibited the procoagulant effect induced by heparanase”. Turning to RYYYDRYTQSCRQF [Peptide 12], in the data set with TF/heparanase complex [2], the “procoagulant effect of heparanase on Xa level” value was “abolished the procoagulant effect of heparanase”.

With “TFPI: recombinant human tissue factor pathway inhibitor [reference compound]”, the “heparanase procoagulant activity” value with TF/heparanase complex [1] is reported as “attenuated the effect; also recorded: mildly attenuated thrombin generation but failed to abolish the procoagulant effect of heparanase”.

B1: TFPI-2: recombinant human tissue factor pathway inhibitor 2, purchased from R&D (protein, UniProt P48307 23-235, looked up)
Tissue factor pathway …: DAAQEPTGNNAEICLLPLDYGPCRALLLRYYYDRYTQSCRQFLYGGCEGNANNFYTWEACDDACWRIEKVPKVCRLQVSVDDQCEGSTEKYFFNLSSMTCEKFFSGGCHRNRIENRFPDEATCMGFCAPKKIPSFCYSPKDEGLCSANVTRYYFNPRYRTCDAFTYTGCGGNDNNFVSREDCKRACAKALKKKKKMPKLRFASRIRKIRKKQF
Take B1: the “heparanase procoagulant activity” value with TF/heparanase complex [1] is recorded as “attenuated the effect; also recorded: mildly attenuated thrombin generation but failed to abolish the procoagulant effect of heparanase”. Moreover, in the data set with TF/heparanase complex [1] (thrombin generation with heparanase), the “inhibitory potency compared to TFPI in the presence of heparanase” value was “more effective inhibitor than TFPI; also recorded: more potent than TFPI”.

B2: double mutant inactive heparanase: heparanase mutated at Glu225 and Glu343, critical for the enzyme catalytic activity (protein)
chain: QDVVDLDFFTQEPLHLVSPSFLSVTIDANLATDPRFLILLGSPKLRTLARGLSPAYLRFGGTKTDFLIFDPKKESTFEERSYWQSQVNQDICKYGSIPPDVEEKLRLEWPYQEQLLLREHYQKKFKNSTYSRSSVDVLYTFANCSGLDLIFGLNALLRTADLQWNSSNAQLLLDYCSSKGYNISWELGNAPNSFLKKADIFINGSQLGEDFIQLHKLLRKSTFKNAKLYGPDVGQPRRKTAKMLKSFLKAGGEVIDSVTWHHYYLNGRTATKEDFLNPDVLDIFISSVQKVFQVVESTRPGKKVWLGATSSAYGGGAPLLSDTFAAGFMWLDKLGLSARMGIEVVMRQVFFGAGNYHLVDENFDPLPDYWLSLLFKKLVGTKVLMASVQGSKRRKLRVYLHCTNTDNPRYKEGDLTLYAINLHNVTKYLRLPYPFSNKQVDKYLLRPLGPHGLLSKSVQLNGLTLKMVDDQTLPPLMEKPLRPGSSLGLPAFSYSFFVIRNAKVAACI
As for B2, in the data set with TF-factor VIIa complex, the “increase in factor Xa levels” value was “increased factor Xa levels”.
